The target in series [1] is T1, MetY (O-acetyl-L-homoserine sulfhydrylase) (Methylorubrum extorquens, UniProt C5ARH8).
T1 construct: full-length, N-terminal 6xHis tag, modified pET22b(+), E. coli BL21(DE3), purified; printed primers translate to N-terminus MHHHHHHSDQTPASVY and C-terminus TLARAA
As to the kind of experiment: coupled acetic acid assay (NADH oxidation, […] nm). The conditions noted are these: pH 7.4, room temperature; co-substrate O-acetyl-L-homoserine saturating. Type of series: biochemical.

Substrate in the series “purified protein”: CC(=O)OCC[C@H](N)C(=O)O
Put plainly: purified protein. The series is classed as biochemical, Methylorubrum extorquens. The settings on record: pH 7.4, room temperature, other substrate saturating (sulfide or methanol; which one is not given).

This is an account of results in publication PMC6595629, “Continuous Culture Adaptation of Methylobacterium extorquens AM1 and TK 0001 to Very High Methanol Concentrations” (Frontiers in Microbiology, 2019).

In the case of `S` [Sodium sulfide], the Michaelis constant (Km) (commonly the substrate concentration at which the rate is half of its maximum) in series [1] came to 800 ± 200 µM.

B1: MetY (O-acetyl-L-homoserine sulfhydrylase) (Methylorubrum extorquens AM1) (protein)
chain: MTDRQPGFNTLAIHAGATPDPATGARATPIYQTTSFVFDDVDHAASLFGLQAFGNIYTRITNPTNAVLEERIAALEGGTAALAVASGHAAEFLTLHALMQPGDEFIAANKLYGGSINQFNHSYKNFGWQVVWADTDDPDSFERAITPRTKAIFCESIANPGGVITDIAALSVIAKRHNIPLIVDNTMATPYLIKPFEHGADIVVHSATKFLGGHGNSIGGLIVDGGTFQWQGDARYPMLSEPRPEYAGMVLAETFGNFGFAIAVRVLSLRDLGPSLSPFNAFLILNGIETLPLRMQRHSDNALKVATFLKNHANVDWVSYPGLESDRYHALAQRYTPKGAGAVFTFGLKGGYEAGVKLVSNLQLFSHLANIGDTRSLVIHPASTTHRQLTDEQKRAAGAGPEVVRLSIGIEDAQDLIDDLDAALRA
notes: full-length, N-terminal 6xHis tag, modified pET22b(+), E. coli BL21(DE3), purified; printed primers translate to N-terminus … and C-terminus TLARAA
For B1, in “purified protein”, the Km was determined as 1300 ± 200 µM; the turnover number (kcat) (as a rule, the number of substrate molecules converted per active site and unit of time at saturation) is 2.32 ± 0.12 s⁻¹; the kcat/Km – broadly, the turnover number divided by the Michaelis constant – was found to be 1850 M⁻¹ s⁻¹.
